According to article PMC6393308:

Assays:
[1] = target: T1, HpSoj (Helicobacter pylori 26695, UniProt O25759 1-264); experiment: EMSA
T1 sequence: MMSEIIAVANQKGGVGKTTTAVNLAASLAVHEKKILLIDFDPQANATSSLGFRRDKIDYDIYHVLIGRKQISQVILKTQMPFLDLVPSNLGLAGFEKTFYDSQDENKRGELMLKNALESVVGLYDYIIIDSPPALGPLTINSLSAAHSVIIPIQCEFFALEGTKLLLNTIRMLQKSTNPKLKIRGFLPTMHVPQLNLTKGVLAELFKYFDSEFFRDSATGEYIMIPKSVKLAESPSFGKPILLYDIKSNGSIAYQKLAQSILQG

[2] = target: T2, HpSoj K199/230E (Helicobacter pylori 26695, UniProt O25759 1-264, K199E;K230E); experiment: fluorescence polarization
T2 sequence: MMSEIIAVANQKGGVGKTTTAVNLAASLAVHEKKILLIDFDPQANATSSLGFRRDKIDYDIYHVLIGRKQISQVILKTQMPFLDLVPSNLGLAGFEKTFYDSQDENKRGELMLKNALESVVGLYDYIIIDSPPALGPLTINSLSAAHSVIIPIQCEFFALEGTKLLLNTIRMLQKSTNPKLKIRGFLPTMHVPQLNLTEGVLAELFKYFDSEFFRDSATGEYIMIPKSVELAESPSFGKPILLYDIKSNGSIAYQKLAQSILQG

[3] = target: T1, HpSoj; experiment: fluorescence polarization
[4] = target: T3, HpSoj K230E (Helicobacter pylori 26695, UniProt O25759 1-264, K230E); experiment: fluorescence polarization
T3 sequence: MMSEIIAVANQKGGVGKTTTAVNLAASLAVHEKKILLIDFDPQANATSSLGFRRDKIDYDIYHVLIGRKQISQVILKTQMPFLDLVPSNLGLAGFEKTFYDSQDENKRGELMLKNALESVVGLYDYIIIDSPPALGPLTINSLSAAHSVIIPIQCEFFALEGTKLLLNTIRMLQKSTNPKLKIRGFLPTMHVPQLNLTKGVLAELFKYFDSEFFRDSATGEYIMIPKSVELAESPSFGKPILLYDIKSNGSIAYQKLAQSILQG

[5] = target: T4, HpSoj K199E (Helicobacter pylori 26695, UniProt O25759 1-264, K199E); experiment: fluorescence polarization
T4 sequence: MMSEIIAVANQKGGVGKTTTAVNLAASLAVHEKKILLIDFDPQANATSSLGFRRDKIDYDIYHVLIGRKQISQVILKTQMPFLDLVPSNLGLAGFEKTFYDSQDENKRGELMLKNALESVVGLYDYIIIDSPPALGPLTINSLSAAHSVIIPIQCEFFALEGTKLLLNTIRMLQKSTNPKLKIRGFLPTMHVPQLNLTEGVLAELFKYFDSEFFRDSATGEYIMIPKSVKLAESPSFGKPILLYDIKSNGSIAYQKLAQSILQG

[6] = target: T5, HpSoj K199/227/230/247E (Helicobacter pylori 26695, UniProt O25759 1-264, K199E;K227E;K230E;K247E); experiment: fluorescence polarization
T5 sequence: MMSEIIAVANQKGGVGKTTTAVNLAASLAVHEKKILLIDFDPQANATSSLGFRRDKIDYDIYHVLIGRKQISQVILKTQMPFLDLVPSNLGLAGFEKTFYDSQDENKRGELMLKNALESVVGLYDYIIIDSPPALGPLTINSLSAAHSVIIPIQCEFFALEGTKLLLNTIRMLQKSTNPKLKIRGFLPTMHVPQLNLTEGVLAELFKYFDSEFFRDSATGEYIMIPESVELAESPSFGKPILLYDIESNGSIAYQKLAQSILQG

Binder | binding result [1] | Kd [2] [nM] | Kd [3] [nM] | Kd [4] [nM] | Kd [5] [nM] | binding result [6]
parS55 (dsDNA) DNA 1: CTGAATCAGCAGTTGAATCAGAATGTTCCACGTGAAACAAAGAAAAAAGAACCTG DNA 2: CAGGTTCTTTTTTCTTTGTTTCACGTGGAACATTCTGATTCAACTGCTGATTCAG | binds |  |  |  |  | 
parS24 Cy3 (dsDNA) DNA 1: AGGGTGTTCCACGTGAAACAGGGA DNA 2: TCCCTGTTTCACGTGGAACACCCT |  | 308 ± 40 | 122 ± 14 | 187 ± 36 | 215 ± 24 | no binding
